One block for each molecule: values may come before it.
Assays:
Experiment in all cases: cell-based or functional assay
[1] = biological target: Cfluc-FKBP12, split site at amino acid position 445 of SEQ ID NO: 2 (Photinus pyralis) (UniProt P62942)
[2] = biological target: Cfluc-FKBP12, split site at amino acid position 420 of SEQ ID NO: 2 (Photinus pyralis) (UniProt P62942)
[3] = biological target: Cfluc-FKBP12, split site at amino acid position 437 of SEQ ID NO: 2 (Photinus pyralis) (UniProt P62942)
Sequence of Cfluc-FKBP12, split site at amino acid position 437 of SEQ ID NO: 2 (Photinus pyralis) (P62942 other isoform, or with tags, fused parts or gaps limits assumed): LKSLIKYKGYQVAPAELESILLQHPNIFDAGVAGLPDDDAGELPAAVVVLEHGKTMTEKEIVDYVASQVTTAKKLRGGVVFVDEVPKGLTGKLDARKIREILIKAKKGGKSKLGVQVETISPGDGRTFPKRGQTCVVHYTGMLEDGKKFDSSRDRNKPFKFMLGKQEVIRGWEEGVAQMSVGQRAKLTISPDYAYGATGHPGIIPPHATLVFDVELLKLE

[4] = biological target: Cfluc-FKBP12, split site at amino acid position 455 of SEQ ID NO: 2 (Photinus pyralis) (UniProt P62942)
Sequence of Cfluc-FKBP12, split site at amino acid position 455 of SEQ ID NO: 2 (Photinus pyralis) (P62942 other isoform, or with tags, fused parts or gaps limits assumed): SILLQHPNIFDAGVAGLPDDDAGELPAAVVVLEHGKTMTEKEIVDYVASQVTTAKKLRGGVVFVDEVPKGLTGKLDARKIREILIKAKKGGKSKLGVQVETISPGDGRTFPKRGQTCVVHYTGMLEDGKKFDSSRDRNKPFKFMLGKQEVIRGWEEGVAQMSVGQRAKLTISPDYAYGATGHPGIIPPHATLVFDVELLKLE

[5] = biological target: Cfluc (437-550 of SEQ ID NO: 2) (Photinus pyralis, UniProt P08659 438-550 = luciferase)
[6] = biological target: Cfluc (445-550 of SEQ ID NO: 2) (Photinus pyralis, UniProt P08659 446-550 = luciferase)
[7] = biological target: T1, Cfluc (500-550 of SEQ ID NO: 2) (Photinus pyralis, UniProt P08659 501-550 = luciferase)
T1 chain: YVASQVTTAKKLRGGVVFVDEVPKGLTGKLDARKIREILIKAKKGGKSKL

[8] = biological target: Cfluc (245-550 of SEQ ID NO: 2) (Photinus pyralis, UniProt P08659 245-550 = luciferase)
[9] = biological target: Cfluc (265-550 of SEQ ID NO: 2) (Photinus pyralis, UniProt P08659 265-550 = luciferase)
[10] = biological target: Cfluc (300-550 of SEQ ID NO: 2) (Photinus pyralis, UniProt P08659 300-550 = luciferase)

Sequence of Cfluc-FKBP12, split site at amino acid position 420 of SEQ ID NO: 2 (Photinus pyralis) (P62942 other isoform, or with tags, fused parts or gaps limits assumed): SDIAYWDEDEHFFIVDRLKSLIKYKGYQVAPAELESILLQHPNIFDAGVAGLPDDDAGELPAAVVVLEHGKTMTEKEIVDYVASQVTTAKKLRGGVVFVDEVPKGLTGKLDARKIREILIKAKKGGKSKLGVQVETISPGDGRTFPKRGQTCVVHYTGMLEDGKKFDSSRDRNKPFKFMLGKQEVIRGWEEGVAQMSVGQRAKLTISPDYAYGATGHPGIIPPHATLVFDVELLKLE
Sequence of Cfluc-FKBP12, split site at amino acid position 445 of SEQ ID NO: 2 (Photinus pyralis) (P62942 other isoform, or with tags, fused parts or gaps limits assumed): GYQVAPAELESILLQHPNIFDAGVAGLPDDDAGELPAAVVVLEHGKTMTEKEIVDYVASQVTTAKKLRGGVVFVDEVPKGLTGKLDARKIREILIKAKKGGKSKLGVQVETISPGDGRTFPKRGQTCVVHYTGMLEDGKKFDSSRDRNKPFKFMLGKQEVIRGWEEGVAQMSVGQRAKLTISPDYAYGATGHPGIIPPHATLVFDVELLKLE

firefly luciferase signal upon exposure to rapamycin, fold over the cells not exposed to rapamycin (co-transfected 293T cells) [1]: 350 fold
Molecule: FRB-Nfluc, split site at amino acid position 445 of SEQ ID NO: 2 (from UniProt P42345 2024-2113)

firefly luciferase signal upon exposure to rapamycin, fold over the cells not exposed to rapamycin (co-transfected 293T cells) [2]: 10 fold
Molecule: FRB-Nfluc, split site at amino acid position 420 of SEQ ID NO: 2 (from UniProt P42345 2024-2113)

firefly luciferase signal upon exposure to rapamycin, fold over the cells not exposed to rapamycin (co-transfected 293T cells) [3]: 40 fold
Molecule: FRB-Nfluc, split site at amino acid position 437 of SEQ ID NO: 2 (from UniProt P42345 2024-2113)

firefly luciferase signal upon exposure to rapamycin, fold over the cells not exposed to rapamycin (co-transfected 293T cells) [4]: 30 fold
Molecule: FRB-Nfluc, split site at amino acid position 455 of SEQ ID NO: 2 (from UniProt P42345 2024-2113)

average of photon max across six animals, 72 h [5]: 2.1 P/cm^2/sec/sr | average of photon max across six animals, 72 h [6]: 0.7 P/cm^2/sec/sr | average of photon max across six animals, 72 h [7]: 0.3 P/cm^2/sec/sr | average of photon max across six animals, 72 h [8]: 1.1 P/cm^2/sec/sr | bioluminescence signal of implanted co-transfected 293T cells in living mice, 24 h [8]: 0.3 P/cm^2/sec/sr | luciferase signal against the combination Nfluc 1-475 / Cfluc 265-550 (cell culture and animal study) [8]: 2 fold less | average of photon max across six animals, 72 h [9]: 1.8 P/cm^2/sec/sr | bioluminescence signal of implanted co-transfected 293T cells in living mice, 24 h [9]: 0.3 P/cm^2/sec/sr | average of photon max across six animals, 72 h [10]: 1.9 P/cm^2/sec/sr | bioluminescence signal of implanted co-transfected 293T cells in living mice, 24 h [10]: 0.3 P/cm^2/sec/sr
B1: Nfluc (1-475 of SEQ ID NO: 2) (other)
chain: MEDAKNIKKGPAPFYPLEDGTAGEQLHKAMKRYALVPGTIAFTDAHIEVNITYAEYFEMSVRLAEAMKRYGLNTNHRIVVCSENSLQFFMPVLGALFIGVAVAPANDIYNERELLNSMNISQPTVVFVSKKGLQKILNVQKKLPIIQKIIIMDSKTDYQGFQSMYTFVTSHLPPGFNEYDFVPESFDRDKTIALIMNSSGSTGLPKGVALPHRTACVRFSHARDPIFGNQIIPDTAILSVVPFHHGFGMFTTLGYLICGFRVVLMYRFEEELFLRSLQDYKIQSALLVPTLFSFFAKSTLIDKYDLSNLHEIASGGAPLSKEVGEAVAKRFHLPGIRQGYGLTETTSAILITPEGDDKPGGVGKVVPFFEAKVVDLDTGKTLGVNQRGELCVRGPMIMSGYVNNPEATNALIDKDGWLHSDIAYWDEDEHFFIVDRLKSLIKYKGYQVAPAELESILLQHPNIFDAGVAGLPDDD

Reference: patent publication US20070161067A1 (STANFORD UNIVERSITY, published 2007)
